According to patent US20130108549A1 (ADLYFE, published 2013):
pyrene = pyrene fluorescent label

Target: Aβ42 fibers (Homo sapiens (Human), UniProt P05067 672-713)
Assay: pyrene excimer fluorescence (FIG. 11A legend)

Aβ42 fibers, sequence (P05067 672-713 limits assumed): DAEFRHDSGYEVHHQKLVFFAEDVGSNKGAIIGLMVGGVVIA

B1: Peptide probe specific for Aβ (SEQ ID NO:36) labeled at each terminus with pyrene (peptide)
peptide: pyrene-KLVFFAEDVGSNKGAIIGLM-pyrene
notes: also called Aβ peptide probe; dipyrene labeled peptide probe
binding result: binds
